The text below walks through data of patent publication US20250155441A1.

Assay [1] has as its target α-fetoprotein (AFP-L1), the non-fucosylated variant of AFP that should not react with Lens culinaris agglutinin A (human) (UniProt P02771). Briefly: Elecsys ECL immunoassay, biotinylated protein 7 nM without pretreatment, antibody 1 µg/mL, ruthenylated anti-rabbit Fc, streptavidin beads (PBS blank 570).
Assay [2] has the same target. Briefly: Elecsys ECL immunoassay, biotinylated protein 7 nM without pretreatment, antibody 1 µg/mL, ruthenylated anti-rabbit Fc, streptavidin beads (PBS blank 580).

Sequence of α-fetoprotein (AFP-L1), the non-fucosylated variant of AFP that should not react with Lens culinaris agglutinin A (human) (P02771 19-609 limits assumed, change not shown): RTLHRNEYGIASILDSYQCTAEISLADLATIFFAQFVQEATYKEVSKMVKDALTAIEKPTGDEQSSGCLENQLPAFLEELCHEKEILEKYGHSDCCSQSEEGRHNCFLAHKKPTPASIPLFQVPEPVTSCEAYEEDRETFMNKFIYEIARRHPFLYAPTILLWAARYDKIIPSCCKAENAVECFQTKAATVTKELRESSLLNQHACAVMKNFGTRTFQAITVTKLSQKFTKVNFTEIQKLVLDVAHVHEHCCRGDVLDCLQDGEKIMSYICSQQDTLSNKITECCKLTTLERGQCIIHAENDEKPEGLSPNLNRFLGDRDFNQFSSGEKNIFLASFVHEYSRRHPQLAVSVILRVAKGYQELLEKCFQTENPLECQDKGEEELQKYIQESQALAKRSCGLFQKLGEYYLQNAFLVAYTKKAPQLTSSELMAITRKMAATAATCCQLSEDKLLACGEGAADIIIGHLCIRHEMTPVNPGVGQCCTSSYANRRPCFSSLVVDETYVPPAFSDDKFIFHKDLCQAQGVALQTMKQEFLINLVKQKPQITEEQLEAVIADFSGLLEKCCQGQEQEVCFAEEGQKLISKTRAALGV

B1: mAb<AFP-L3>rRb-3C5-IgG (antibody, V domains shown)
VH: QSVEESGGRLVAPGTPLTLTCTVSGIDLSTYGMGWVRQAPGKGLEYIGIIDSGSTYYANWAKGRFTISKTSTTVDLKMTSLTTEDTATYFCARDRDPSSSGYYFKMWGPGTLVTVSL
VL: ALVMTQTPSSVSAAVGGTVTINCQASQSIGSYLAWYQQKPGQPPRLLIYGASNLESGVPSRFKGSGSGTEFTLTISDLECDDAATYYCQTAFYIFSSDNAFGGGTEVVVK
Take B1: the Counts in assay [1] came to 724 counts.

B2: mAb<AFP-L3>rRb-19B12-IgG (antibody, V domains shown)
VH: QSVEESGGRLVAPGTPLTLTCTVSGIDLSTYGMGWVRQAPGKGLEWIGIIGDNGSTYYANWAKGRFTISKTSTTVDLKMTSLTTEDTATYFCARDRDPSSSGYYFKMWGPGTLVTVSL
VL: ALVMTQTPSSVSAAVGGTVTINCQASQSISSYLAWYQQKPGQPPKLLIFGASNLESGVPSRFKGSGSGTEFTLTISDLECDDAATYYCQTAFYIFSSDNAFGGGTEVVVK
As to B2, the Counts in assay [2] came to 771 counts.
